Read-outs that look alike come from different tables or passages of the source.
Experiments:
[1] = target: T1, HCV ORFs (Gal4-DB fusions) (Hepatitis C virus genotype 1b, UniProt Q9WMX2); type: binding, HCV genotype 1b, isolate con1; details: human protein as prey
T1 construct: expressed in transfected cells; host or cells: Saccharomyces cerevisiae MAV203 (IMAP1) / AH109 (IMAP2)
Procedure: (§1) HCV ORFs were transferred from pDONR223 into bait vector (pPC97) to be expressed as Gal4-DB fusions in yeast. Two different screening methods were used (IMAP1 and IMAP2). Both for IMAP1 and IMAP2 strategies and because bait constructs sometimes self-transactivate reporter genes, SD-L-H culture medium were supplemented with 3-aminotriazole (3-AT). Appropriate concentrations of this drug were determined by growing bait strains on SD-L-H medium supplemented with increasing concentrations of 3-AT. […] For IMAP1, bait vectors were introduced in MAV203 yeast strain and both human spleen and foetal brain AD-cDNA libraries (Invitrogen) were screened by transformation as described (7). All primary positive clones (selected on SD-W-L-H+3-AT) were tested by further phenotypic assay using two additional reporter genes: LacZ (X-Gal colorimetric assay) and URA3 (growth assay on 5-FOA supplemented medium). […] AD-cDNA were PCR-amplified and inserts were sequenced to identify interactors. IMAP2 screens were performed by yeast mating, using AH109 and Y187 yeast strains (Clontech (8)). Bait vectors were transformed into AH109 (bait strain) and human spleen and foetal brain AD-cDNA libraries (Invitrogen) were transformed into Y187 (prey strain). Single bait strains were mated with prey strains then diploids were plated on SD-W-L-H+3-AT medium. Positive clones were maintained onto this selective medium for 15 days to eliminate any contaminant AD-cDNA plasmid (9). AD-cDNAs were PCR amplified and inserts were sequenced.
(§2) We have developed a bioinformatic pipeline that assigns each IST to its native human genome transcript. […] Gal4 motif was searched (last 87 bases of GAL4-AD), sequences downstream of this motif were translated into peptides and aligned using BLASTP against the REFSEQ (http://www.ncbi.nlm.nih.gov/RefSeq/) human protein sequence database (release 04/2007). Low-confidence alignments (E value>10^−10, identity <80%) and premature STOP codon containing sequences were eliminated. Only in-frame proteins and high quality sequences were further considered

[2] = tested on: HCV ORFs (Gal4-DB fusions); type: binding, HCV genotype 1b, isolate con1; details: human protein listed by gene symbol; the value names the HCV protein it interacts with
Procedure: as §1, §2
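Note: yeast two-hybrid screens using HCV genotype 1b proteins fused to Gal4-DB as baits against prey cDNA libraries from human spleen and foetal brain, IMAP1 via transformation and IMAP2 via mating.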

Molecule | IMAP Y2H IMAP2 (number of IST) ([1]; HCV protein NS5A as bait) | Interaction with viral protein [2] | IMAP Y2H IMAP2 (number of IST) ([1]; HCV protein NS3 as bait) | IMAP Y2H IMAP2 (number of IST) ([1]; HCV protein NS4A as bait)
ACLY (protein, UniProt P53396 1-1101, looked up) ATP-citrate synthase: MSAKAISEQTGKELLYKFICTTSAIQNRFKYARVTPDTDWARLLQDHPWLLSQNLVVKPDQLIKRRGKLGLVGVNLTLDGVKSWLKPRLGQEATVGKATGFLKNFLIEPFVPHSQAEEFYVCIYATREGDYVLFHHEGGVDVGDVDAKAQKLLVGVDEKLNPEDIKKHLLVHAPEDKKEILASFISGLFNFYEDLYFTYLEINPLVVTKDGVYVLDLAAKVDATADYICKVKWGDIEFPPPFGREAYPEEAYIADLDAKSGASLKLTLLNPKGRIWTMVAGGGASVVYSDTICDLGGVNELANYGEYSGAPSEQQTYDYAKTILSLMTREKHPDGKILIIGGSIANFTNVAATFKGIVRAIRDYQGPLKEHEVTIFVRRGGPNYQEGLRVMGEVGKTTGIPIHVFGTETHMTAIVGMALGHRPIPNQPPTAAHTANFLLNASGSTSTPAPSRTASFSESRADEVAPAKKAKPAMPQDSVPSPRSLQGKSTTLFSRHTKAIVWGMQTRAVQGMLDFDYVCSRDEPSVAAMVYPFTGDHKQKFYWGHKEILIPVFKNMADAMRKHPEVDVLINFASLRSAYDSTMETMNYAQIRTIAIIAEGIPEALTRKLIKKADQKGVTIIGPATVGGIKPGCFKIGNTGGMLDNILASKLYRPGSVAYVSRSGGMSNELNNIISRTTDGVYEGVAIGGDRYPGSTFMDHVLRYQDTPGVKMIVVLGEIGGTEEYKICRGIKEGRLTKPIVCWCIGTCATMFSSEVQFGHAGACANQASETAVAKNQALKEAGVFVPRSFDELGEIIQSVYEDLVANGVIVPAQEVPPPTVPMDYSWARELGLIRKPASFMTSICDERGQELIYAGMPITEVFKEEMGIGGVLGLLWFQKRLPKYSCQFIEMCLMVTADHGPAVSGAHNTIICARAGKDLVSSLTSGLLTIGDRFGGALDAAAKMFSKAFDSGIIPMEFVNKMKKEGKLIMGIGHRVKSINNPDMRVQILKDYVRQHFPATPLLDYALEVEKITTSKKPNLILNVDGLIGVAFVDMLRNCGSFTREEADEYIDIGALNGIFVLGRSMGFIGHYLDQKRLKQGLYRHPWDDISYVLPEHMSM | 1 | NS5A | – | –
TMEM63B (protein, UniProt Q5T3F8 1-832, looked up) Mechanosensitive cation …: MLPFLLATLGTTALNNSNPKDYCYSARIRSTVLQGLPFGGVPTVLALDFMCFLALLFLFSILRKVAWDYGRLALVTDADRLRRQERDRVEQEYVASAMHGDSHDRYERLTSVSSSVDFDQRDNGFCSWLTAIFRIKDDEIRDKCGGDAVHYLSFQRHIIGLLVVVGVLSVGIVLPVNFSGDLLENNAYSFGRTTIANLKSGNNLLWLHTSFAFLYLLLTVYSMRRHTSKMRYKEDDLVKRTLFINGISKYAESEKIKKHFEEAYPNCTVLEARPCYNVARLMFLDAERKKAERGKLYFTNLQSKENVPTMINPKPCGHLCCCVVRGCEQVEAIEYYTKLEQKLKEDYKREKEKVNEKPLGMAFVTFHNETITAIILKDFNVCKCQGCTCRGEPRPSSCSESLHISNWTVSYAPDPQNIYWEHLSIRGFIWWLRCLVINVVLFILLFFLTTPAIIITTMDKFNVTKPVEYLNNPIITQFFPTLLLWCFSALLPTIVYYSAFFEAHWTRSGENRTTMHKCYTFLIFMVLLLPSLGLSSLDLFFRWLFDKKFLAEAAIRFECVFLPDNGAFFVNYVIASAFIGNAMDLLRIPGLLMYMIRLCLARSAAERRNVKRHQAYEFQFGAAYAWMMCVFTVVMTYSITCPIIVPFGLMYMLLKHLVDRYNLYYAYLPAKLDKKIHSGAVNQVVAAPILCLFWLLFFSTMRTGFLAPTSMFTFVVLVITIVICLCHVCFGHFKYLSAHNYKIEHTETDTVDPRSNGRPPTAAAVPKSAKYIAQVLQDSEVDGDGDGAPGSSGDEPPSSSSQDEELLMPPDALTDTDFQSCEDSLIENEIHQ | – | NS3 | 1 | –
ZMYM2 (protein, UniProt Q9UBW7 1-1377, looked up) Zinc finger MYM-type protein 2: MDTSSVGGLELTDQTPVLLGSTAMATSLTNVGNSFSGPANPLVSRSNKFQNSSVEDDDDVVFIEPVQPPPPSVPVVADQRTITFTSSKNEELQGNDSKITPSSKELASQKGSVSETIVIDDEEDMETNQGQEKNSSNFIERRPPETKNRTNDVDFSTSSFSRSKVNAGMGNSGITTEPDSEIQIANVTTLETGVSSVNDGQLENTDGRDMNLMITHVTSLQNTNLGDVSNGLQSSNFGVNIQTYTPSLTSQTKTGVGPFNPGRMNVAGDVFQNGESATHHNPDSWISQSASFPRNQKQPGVDSLSPVASLPKQIFQPSVQQQPTKPVKVTCANCKKPLQKGQTAYQRKGSAHLFCSTTCLSSFSHKPAPKKLCVMCKKDITTMKGTIVAQVDSSESFQEFCSTSCLSLYEDKQNPTKGALNKSRCTICGKLTEIRHEVSFKNMTHKLCSDHCFNRYRMANGLIMNCCEQCGEYLPSKGAGNNVLVIDGQQKRFCCQSCVSEYKQVGSHPSFLKEVRDHMQDSFLMQPEKYGKLTTCTGCRTQCRFFDMTQCIGPNGYMEPYCSTACMNSHKTKYAKSQSLGIICHFCKRNSLPQYQATMPDGKLYNFCNSSCVAKFQALSMQSSPNGQFVAPSDIQLKCNYCKNSFCSKPEILEWENKVHQFCSKTCSDDYKKLHCIVTYCEYCQEEKTLHETVNFSGVKRPFCSEGCKLLYKQDFARRLGLRCVTCNYCSQLCKKGATKELDGVVRDFCSEDCCKKFQDWYYKAARCDCCKSQGTLKERVQWRGEMKHFCDQHCLLRFYCQQNEPNMTTQKGPENLHYDQGCQTSRTKMTGSAPPPSPTPNKEMKNKAVLCKPLTMTKATYCKPHMQTKSCQTDDTWRTEYVPVPIPVPVYIPVPMHMYSQNIPVPTTVPVPVPVPVFLPAPLDSSEKIPAAIEELKSKVSSDALDTELLTMTDMMSEDEGKTETTNINSVIIETDIIGSDLLKNSDPETQSSMPDVPYEPDLDIEIDFPRAAEELDMENEFLLPPVFGEEYEEQPRPRSKKKGAKRKAVSGYQSHDDSSDNSECSFPFKYTYGVNAWKHWVKTRQLDEDLLVLDELKSSKSVKLKEDLLSHTTAELNYGLAHFVNEIRRPNGENYAPDSIYYLCLGIQEYLCGSNRKDNIFIDPGYQTFEQELNKILRSWQPSILPDGSIFSRVEEDYLWRIKQLGSHSPVALLNTLFYFNTKYFGLKTVEQHLRLSFGTVFRHWKKNPLTMENKACLRYQVSSLCGTDNEDKITTGKRKHEDDEPVFEQIENTANPSRCPVKMFECYLSKSPQNLNQRMDVFYLQPECSSSTDSPVWYTSTSLDRNTLENMLVRVLLVKDIYDKDNYELDEDTD | – | NS3 | 2 | –
ARFIP1 (protein, UniProt P53367 2-373, looked up) Arfaptin-1: AQESPKNSAAEIPVTSNGEVDDSREHSFNRDLKHSLPSGLGLSETQITSHGFDNTKEGVIEAGAFQGSPAPPLPSVMSPSRVAASRLAQQGSDLIVPAGGQRTQTKSGPVILADEIKNPAMEKLELVRKWSLNTYKCTRQIISEKLGRGSRTVDLELEAQIDILRDNKKKYENILKLAQTLSTQLFQMVHTQRQLGDAFADLSLKSLELHEEFGYNADTQKLLAKNGETLLGAINFFIASVNTLVNKTIEDTLMTVKQYESARIEYDAYRTDLEELNLGPRDANTLPKIEQSQHLFQAHKEKYDKMRNDVSVKLKFLEENKVKVLHNQLVLFHNAIAAYFAGNQKQLEQTLKQFHIKLKTPGVDAPSWLEEQ | 9 | NS5A | – | –
TRAF3IP3 (protein, UniProt Q9Y228 1-551, looked up) TRAF3-interacting …: MISPDPRPSPGLARWAESYEAKCERRQEIRESRRCRPNVTTCRQVGKTLRIQQREQLQRARLQQFFRRRNLELEEKGKAQHPQAREQGPSRRPGQVTVLKEPLSCARRISSPREQVTGTSSEVFPAQHPPPSGICRDLSDHLSSQAGGLPPQDTPIKKPPKHHRGTQTKAEGPTIKNDASQQTNYGVAVLDKEIIQLSDYLKEALQRELVLKQKMVILQDLLSTLIQASDSSWKGQLNEDKLKGKLRSLENQLYTCTQKYSPWGMKKVLLEMEDQKNSYEQKAKESLQKVLEEKMNAEQQLQSTQRSLALAEQKCEEWRSQYEALKEDWRTLGTQHRELESQLHVLQSKLQGADSRDLQMNQALRFLENEHQQLQAKIECLQGDRDLCSLDTQDLQDQLKRSEAEKLTLVTRVQQLQGLLQNQSLQLQEQEKLLTKKDQALPVWSPKSFPNEVEPEGTGKEKDWDLRDQLQKKTLQLQAKEKECRELHSELDNLSDEYLSCLRKLQHCREELNQSQQLPPRRQCGRWLPVLMVVIAAALAVFLANKDNLMI | – | NS4A | – | 1
UBE1C (protein, UniProt Q8TBC4 2-463, looked up) NEDD8-activating enzyme E1 …: ADGEEPEKKRRRIEELLAEKMAVDGGCGDTGDWEGRWNHVKKFLERSGPFTHPDFEPSTESLQFLLDTCKVLVIGAGGLGCELLKNLALSGFRQIHVIDMDTIDVSNLNRQFLFRPKDIGRPKAEVAAEFLNDRVPNCNVVPHFNKIQDFNDTFYRQFHIIVCGLDSIIARRWINGMLISLLNYEDGVLDPSSIVPLIDGGTEGFKGNARVILPGMTACIECTLELYPPQVNFPMCTIASMPRLPEHCIEYVRMLQWPKEQPFGEGVPLDGDDPEHIQWIFQKSLERASQYNIRGVTYRLTQGVVKRIIPAVASTNAVIAAVCATEVFKIATSAYIPLNNYLVFNDVDGLYTYTFEAERKENCPACSQLPQNIQFSPSAKLQEVLDYLTNSASLQMKSPAITATLEGKNRTLYLQSVTSIEERTRPNLSKTLKELGLVDGQELAVADVTTPQTVLFKLHFTS | – | NS3 | 1 | –

— patent US20110091994A1, “Methods for Screening Compounds for Treating and/or Preventing an Hepatitis C Virus Infection” (priority 2008, published 2011)
